First the molecules themselves.
T1: NANP3 peptide (minimal NANP repeat peptide) (Plasmodium falciparum (isolate NF54).)
T1 construct: source: bought: PSL GmbH, Heidelberg
T1 chain: NANPNANPNANP

T2: NANP5 peptide (NANP 5-mer peptide of the PfCSP repeat) (Plasmodium falciparum (isolate NF54).)
T2 construct: source: bought: Alpha Diagnostic International
T2 chain: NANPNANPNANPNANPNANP

T3: minimal NANP3 peptide (Plasmodium falciparum (isolate NF54).)
T3 chain: NANPNANPNANP

B1: 1210 antigen-binding fragment (Fab) (Fab, V domains shown)
VH: QVQLVESGGGVVQPGRSLRLSCAASGFTFSNYGMHWVRQAPGKGLEWVAVIWYDGSKKYYADSVKGRFTISRDNSKNTLYLQMNSLRAEDTAVYYCARVRDSSDYYGDAFDIWGQGTMVTVSS
VL: DIQMTQSPSTLSASVGDRVTITCRASQSISSWLAWYQQKPGKAPKLLIYKASNLESGVPLRFSGSGSGTEFTLTISSLQPDDFATYYCQQYNNYWTFGQGTKVEIK
B2: 1210_YY IgG (1210 H.D100Ymut_K.N92Ymut) (antibody, V domains shown)
VH: B1 VH with D104Y
VL: B1 VL with N92Y
notes: IgG1; source: HEK293F, purified (Protein G Sepharose)
B3: 1210 IgG (antibody, V domains shown)
VH: B1 VH
VL: B1 VL
notes: as for B2
B4: 1210 germline antibody Fab (recombinant Fab for ITC) (Fab, V domains shown)
VH: B1 VH with N31S, K57N
VL: not shown
notes: source: HEK293F, transiently expressed, purified (KappaSelect, SEC)
B5: 1210_H.K56_Nrev_K.N93_Srev Fab (recombinant Fab for ITC) (Fab, V domains shown)
VH: B1 VH with K57N
VL: B1 VL with N93S
notes: as for B4
B6: 1210 H.D100Ymut_K.N92Ymut Fab (recombinant Fab for ITC) (Fab, V domains shown)
VH: B1 VH with D104Y
VL: B1 VL with N92Y
notes: as for B4
B7: 1210 Fab (recombinant Fab for ITC) (Fab, V domains shown)
VH: B1 VH
VL: B1 VL
notes: as for B4
B8: 1210_K. N93_S^rev (antibody, V domains shown)
VH: B1 VH
VL: B1 VL with N93S
B9: 1210_H.K56_N^rev (antibody, V domains shown)
VH: B1 VH with K57N
VL: B1 VL
B10: 2163 (antibody, V domains shown)
VH: QVQLVESGGGVVQPGRSLRLSCAASGFTFSSYGMHWVRQAPGKGLEWVAVIWYDGSNKYYADSVKGRFTISRDNSKNTLYLQMNSLRAEDTAVYYCARVQTTTGGGSCCPFDYWGQGTLVTVSS
VL: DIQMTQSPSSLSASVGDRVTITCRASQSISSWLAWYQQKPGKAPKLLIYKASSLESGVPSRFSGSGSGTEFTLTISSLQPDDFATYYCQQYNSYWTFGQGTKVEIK
B11: 2163_H.N56_Kmut (antibody, V domains shown)
VH: B10 VH with N57K
VL: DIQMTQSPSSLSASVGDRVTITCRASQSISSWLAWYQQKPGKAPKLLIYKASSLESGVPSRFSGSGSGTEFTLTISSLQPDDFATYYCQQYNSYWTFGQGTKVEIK
B12: 2163_H.V50_Imut (antibody, V domains shown)
VH: B10 VH with V50I
VL: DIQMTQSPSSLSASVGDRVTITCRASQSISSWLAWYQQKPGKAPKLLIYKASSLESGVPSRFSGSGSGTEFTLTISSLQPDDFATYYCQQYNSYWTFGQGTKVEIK
B13: 2163_H.S31_Nmut (antibody, V domains shown)
VH: B10 VH with S31N
VL: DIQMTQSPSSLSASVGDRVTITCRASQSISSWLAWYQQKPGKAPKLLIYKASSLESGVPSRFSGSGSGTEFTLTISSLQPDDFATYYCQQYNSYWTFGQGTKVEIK
B14: 1210_H.N31_Srev (antibody, V domains shown)
VH: B1 VH with N31S
VL: B1 VL
B15: 2163_KN (antibody, V domains shown)
VH: B10 VH with N57K
VL: B1 VL with T10S, N53S, L60S

Numbering of substitutions follows the chain as printed.

T4 sequence (P19597 19-374): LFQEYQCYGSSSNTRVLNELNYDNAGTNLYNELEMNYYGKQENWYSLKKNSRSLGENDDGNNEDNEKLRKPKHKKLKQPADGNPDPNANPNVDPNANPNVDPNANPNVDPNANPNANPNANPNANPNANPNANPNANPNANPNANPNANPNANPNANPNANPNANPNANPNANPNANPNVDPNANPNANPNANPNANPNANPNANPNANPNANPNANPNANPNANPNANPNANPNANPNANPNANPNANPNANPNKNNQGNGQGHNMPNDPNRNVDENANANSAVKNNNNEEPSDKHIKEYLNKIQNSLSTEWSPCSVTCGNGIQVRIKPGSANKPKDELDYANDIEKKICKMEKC

The first experiment has as its target T4, full-length PfCSP with 38 NANP repeats (Plasmodium falciparum (isolate NF54)., UniProt P19597).
T4 construct: also called circumsporozoite protein; NF54
Nature of the experiment: SEC-MALS; 1210 Fab–PfCSP complex; molar mass from two measurements. Conditions: both partners purified.
B1: the “stoichiometry N” value is about 12 Fabs per PfCSP.

In the next experiment the target is T5, full length PfCSP (NF54 strain) (Plasmodium falciparum (isolate NF54)., UniProt P19597).
T5 construct: also called NF54 PfCSP; circumsporozoite protein; source: HEK293F, transient expression, purified (HisTrap Ni/NTA, SEC)
T5 sequence (P19597 19-374): as above
Nature of the experiment: BLI. The note with it: both partners purified.
B2: binding was characterised by a dissociation constant (Kd) of 0.66 nM.

With B3, the Kd was under 0.001 nM.

A further experiment concerns the target T1, NANP3 peptide (minimal NANP repeat …). As to the kind of experiment: ITC. The note with it: both partners purified.
Take B4: the “stoichiometry N” value was determined as 0.92.

On to B5, for which the “stoichiometry N” value is 0.94.

For B6, the “stoichiometry N” value was found to be 0.88.

Consider B7, for which the “stoichiometry N” value worked out at 0.73.

In a further experiment the target is T2, NANP5 peptide (NANP 5-mer peptide of …). Nature of the experiment: ITC. Conditions: both partners purified.
As for B4, the “stoichiometry N” value was 1.9.

As for B5, the “stoichiometry N” value turned out to be 1.7.

B6: the “stoichiometry N” value was 2.1.

With B7, the “stoichiometry N” value came out at 1.8.

The target in another experiment is T3, minimal NANP3 peptide. Nature of the experiment: SPR; independent NANP3 SPR affinity measurements of original and mutated antibodies; who was immobilised is not given in the source. Conditions: both partners purified.
In the case of B8, the binding result was “binds”.

Turning to B9, the binding result is “binds”.

A further experiment deals with T3, minimal NANP3 peptide.
Test: not given
Details: not given
On to B10, for which the binding result is on record as “binds”.

Take B11: the binding result is “binds”.

With B12, the binding result was “binds”.

Take B13: the binding result is “binds”.

On to B14, for which the binding result is listed as “binds”.

For the molecule B15, the binding result is “binds”.

Usually stoichiometry N stands for a count of units in the complex or per binding partner. Usually Kd stands for the equilibrium constant for the complex coming apart. The low end stands for higher affinity, the high end for lower affinity.

The values above are taken from publication PMC6420115 (Science (New York, N.y.), 2018).
